The target of assay [1] is Δ131Δ with a K16C mutation (model client). As to the kind of experiment: fluorescence polarisation. Background: Fluorescence polarisation rises when a labelled molecule tumbles more slowly, as on binding a larger partner.
The target is the same in assay [2]. As to the kind of experiment: fluorescence polarisation. This is another data set of the same source.
The target of assay [3] is Grp94 full-length (FL) wild type (human, UniProt P14625 22-803, biotin label (Grp94 NH3-bio), in the streptavidin pull-down). As to the kind of experiment: pull-down.

Where two headings read alike, the source gives them in different places.

Grp94 full-length (FL) wild type (human, UniProt P14625 22-803, biotin label (Grp94 NH3-bio), in the streptavidin pull-down), sequence (P14625 22-803): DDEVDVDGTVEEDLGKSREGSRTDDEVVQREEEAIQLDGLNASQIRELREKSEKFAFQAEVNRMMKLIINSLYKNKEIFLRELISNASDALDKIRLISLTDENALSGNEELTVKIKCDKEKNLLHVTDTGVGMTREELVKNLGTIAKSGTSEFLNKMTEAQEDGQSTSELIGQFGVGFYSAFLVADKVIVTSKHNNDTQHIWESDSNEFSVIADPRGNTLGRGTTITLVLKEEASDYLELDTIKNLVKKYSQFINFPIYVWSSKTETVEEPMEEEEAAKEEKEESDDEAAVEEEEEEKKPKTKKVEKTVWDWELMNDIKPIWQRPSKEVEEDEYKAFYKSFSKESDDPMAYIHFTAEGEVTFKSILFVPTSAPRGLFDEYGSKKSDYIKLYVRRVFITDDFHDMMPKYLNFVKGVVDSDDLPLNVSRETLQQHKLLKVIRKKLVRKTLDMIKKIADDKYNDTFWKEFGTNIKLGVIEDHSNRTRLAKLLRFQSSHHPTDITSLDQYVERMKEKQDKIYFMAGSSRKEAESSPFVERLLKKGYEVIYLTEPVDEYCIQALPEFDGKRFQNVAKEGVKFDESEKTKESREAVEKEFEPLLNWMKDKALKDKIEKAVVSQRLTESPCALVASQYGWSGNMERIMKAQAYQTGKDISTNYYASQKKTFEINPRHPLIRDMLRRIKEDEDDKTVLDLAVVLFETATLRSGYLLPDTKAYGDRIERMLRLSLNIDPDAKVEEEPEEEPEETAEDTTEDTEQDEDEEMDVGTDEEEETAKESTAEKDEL

The molecule “Grp94 full-length (FL) wild type (from UniProt P14625 22-803) (natural protein)” had a fold decrease of binding affinity against apo conditions in assay [1] of 2 fold. Also, in assay [2], the Kd (in general, a measure of binding affinity in units of concentration) is 7.2 µM and the fold decrease of binding affinity against apo conditions was 2 fold.

As for “Grp94 Δ72 (pre-N domain truncation, aa 73-803) (from UniProt P14625 73-803) (domain or fragment)”, the fold decrease of binding affinity against apo conditions was determined as 6 fold in assay [1] and 4 fold in assay [2].

B1: DnaJB11 (BiP co-chaperone, J-protein) (natural protein)
chain: GRDFYKILGVPRSASIKDIKKAYRKLALQLHPDRNPDDPQAQEKFQDLGAAYEVLSDSEKRKQYDTYGEEGLKDGHQSSHGDIFSHFFGDFGFMFGGTPRQQDRNIPRGSDIIVDLEVTLEEVYAGNFVEVVRNKPVARQAPGKRKCNCRQEMRTTQLGPGRFQMTQEVVCDECPNVKLVNEERTLEVEIEPGVRDGMEYPFIGEGEPHVDGEPGDLRFRIKVVKHPIFERRGDDLYTNVTISLVESLVGFEMDITHLDGHKVHISRDKITRPGAKLWKKGEGLPNFDNNNIKGSLIITFDVDFPKEQLTEEAREGIKQLLKQGSVQKVYNGLQGY
On to B1, for which, in assay [3], the binding result is on record as “binds”.

The values are drawn from publication PMC10962938 (Proceedings of the National Academy of Sciences of the …, 2024).
